Numbering of substitutions follows the chain as printed.
B1: chAb18-CZ (antibody, IgG1, V domains shown)
VH: QVQLQQSAAELARPGASVKMSCKASGYSFTSYTIHWVKQRPGQGLEWIGYINPNSRNTDYNQKFKDETTLTADRSSSTAYMQLISLTSEDSAVYYCARYSGSTPYWYFDVWGAGTTVTVSS
VL: QIVLTQSPAILSASPGEKVTMTCRASSSVSYMNWYQQKPGSSPKPWIYATSNLASGVPARFSVSVSGTSHSLTISRVEAEDAATYYCQQWSSNPLTFGAGTKLELK
modifications: synthon CZ on reduced interchain Cys
B2: chAb11-CZ (antibody, IgG1, V domains shown)
VH: EVKLVESGGGLVQPGGSLRLSCATSGFTFTNYYMSWVRQPPGKALEWLGFIRNKANDYTTEYSASVKGRFTISRDNSQSILYLQMNTLRAEDSATYYCARESPGNPFAYWGQGTLVTVSA
VL: DIVMTQSPSSLTVTAGEKVTMTCKSSQSLLNSGTQKNFLTWYQQKPGQPPKLLIYWASTRESGVPDRFTGSGSGTDFTLTISSVQAEDLAVYFCQNDYIYPLTFGAGTKLELK
modifications: synthon CZ on reduced interchain Cys
B3: chAb6-CZ (antibody, IgG1, V domains shown)
VH: QVQLQQSGAELMKPGASVKISCKATGYTFSRYWIEWVKQRPGHGLEWIGEILPGSGSTNYNEKFKGKATFTADTSSNTAYMQVSSLTSEDSAVHYCARRGYGYVPYALDYWGQGTSVTVSS
VL: EIQMTQTTSSLSASLGDRVTISCRASQDISNSLNWYQQKPDGTVNLLIYYTSRLYSGVPSRFSGSGSGTDYSLTISNLEQEDIATYFCQQGNTLPYTFGGGTKLEIK
modifications: synthon CZ on reduced interchain Cys
B4: chAb16-CZ (antibody, IgG1, V domains shown)
VH: EVKLLESGGGLVQPGGSLKLSCAASGFDFSRYWMSWVRQAPGKGLEWIGEINPDSSTINYTPSLKDKFIISRDNAKNTLYLQMSKVRSEDTALYYCARPGFGNYIYAMDYWGQGTSVTVSS
VL: B3 VL with E1D, S22N, S32F, N45K, S56L, Y96P
modifications: synthon CZ on reduced interchain Cys
B5: chAb3 (antibody, IgG1, V domains shown)
VH: QVQLQQPGAELVKPGASVKLSCKASGYTFSSYWMHWVKQRPGQGLEWIGLIHPDSGSTNYNEMFKNKATLTVDRSSSTAYVQLSSLTSEDSAVYFCAGGGRLYFDYWGQGTTLTVSS
VL: DVVMTQTPLSLPVSLGDQASISCRSSQSLVHSNGDTYLRWYLQKPGQSPKLLIYKVSNRFSGVPDRFSGSGSGTDFTLKITRVEAEDLGVYFCSQSTHVPYTFGGGTKLEIK
notes: chimeric, huIgG1/k
B6: chAb4-CZ (antibody, IgG1, V domains shown)
VH: QVQLQQPGAELVKPGASVKLSCKASGYSFTSYWMHWVKQRPGQGLEWIGMIHPNSGSNNYNEKFKSKATLTVDKSSNTAYMQLSSLTSEDSAVYYCARRLGLHFDYWGQGTTLTVSS
VL: DIVMTQSQKFMSTPVGDRVSITCKASQNVGTAVAWYQQKPGQSPKLLIYSASNRYTGVPDRFTGSGSGTDFTLTISNMQSEDLADYFCQQYSSYPYTFGGGTKLEIK
modifications: synthon CZ on reduced interchain Cys
B7: chAb14-CZ (antibody, IgG1, V domains shown)
VH: EVKLVESGGGLVKPGGSLKLSCAASGFTFSSYGMSWVRQTPEKRLEWVATISGGGTNTYYPDSVEGRFTISRDNAKNFLYLQMSSLRSEDTALYYCARHYGSQTMDYWGQGTSVTVSS
VL: DIQMTQSPASLSASVGETVTITCRTSGNIHNYLTWYQQKQGKSPQLLVYNAKTLADGVPSRFSGSGSGTQFSLKINSLQPEDFGSYYCQHFWSIMWTFGGGTKLEIK
modifications: synthon CZ on reduced interchain Cys
B8: huAb3v2.5-CZ (antibody, human IgG1, kappa, L234A L235A, V domains shown)
VH: EVQLVQSGAEVKKPGSSVKVSCKASGYTFSSYWMHWVRQAPGQGLEWIGLIHPESGSTNYNEMFKNRATLTVDRSTSTAYMELSSLRSEDTAVYYCAGGGRLYFDYWGQGTTVTVSS
VL: DIVMTQSPLSLPVTPGEPASISCRSSQSLVHSNRDTYLRWYLQKPGQSPQLLIYKVSNRFSGVPDRFSGSGSGTDFTLKISRVEAEDVGVYYCSQSTHVPYTFGGGTKVEIKR
modifications: synthon CZ on reduced interchain Cys
B9: huAb3v5 (antibody, V domains shown)
VH: B8 VH with E54D
VL: B5 VL with T7S, S14T, L15P, D17E, Q18P, K50Q, T81S, L88V, F92Y, L109V
notes: humanized IgG
B10: huAb3v4 (antibody, V domains shown)
VH: B8 VH with I48M, E54D, A68V, L70I, V72A, R74K, G98R
VL: B5 VL with T7S, S14T, L15P, D17E, Q18P, K50Q, T81S, L88V, F92Y, L109V
notes: humanized IgG
B11: huAb3v3 (antibody, V domains shown)
VH: B8 VH with E54D, M81V, Y95F
VL: B5 VL with T7S, S14T, L15P, D17E, Q18P, K50Q, T81S, L88V, L109V
notes: humanized IgG
B12: huAb3v1 (antibody, V domains shown)
VH: B8 VH with I48M, E54D, A68V, L70I, V72A, R74K, G98R
VL: DIVMTQSPLSLPVTPGEPASISCRSSQSLVHSNGDTYLRWYLQKPGQSPQLLIYKVSNRFSGVPDRFSGSGSGTDFTLKISRVEAEDVGVYYCSQSTHVPYTFGGGTKVEIK
notes: humanized IgG
B13: huAb3v6 (antibody, V domains shown)
VH: B8 VH with E54D, M81V, Y95F
VL: B12 VL with I2V
notes: humanized IgG

What was measured:
Human full length B7-H3 [1] = target: T1, Human full length B7-H3 (human, UniProt Q5ZPR3 29-534); test: FACS (Example 6 method)
T1 construct: On 3T12 fibroblasts expressing full length human B7-H3 or on NCI-H1650 cells; signal peptide residues 1-28 stated; also called huB7-H3; CD276
T1 sequence: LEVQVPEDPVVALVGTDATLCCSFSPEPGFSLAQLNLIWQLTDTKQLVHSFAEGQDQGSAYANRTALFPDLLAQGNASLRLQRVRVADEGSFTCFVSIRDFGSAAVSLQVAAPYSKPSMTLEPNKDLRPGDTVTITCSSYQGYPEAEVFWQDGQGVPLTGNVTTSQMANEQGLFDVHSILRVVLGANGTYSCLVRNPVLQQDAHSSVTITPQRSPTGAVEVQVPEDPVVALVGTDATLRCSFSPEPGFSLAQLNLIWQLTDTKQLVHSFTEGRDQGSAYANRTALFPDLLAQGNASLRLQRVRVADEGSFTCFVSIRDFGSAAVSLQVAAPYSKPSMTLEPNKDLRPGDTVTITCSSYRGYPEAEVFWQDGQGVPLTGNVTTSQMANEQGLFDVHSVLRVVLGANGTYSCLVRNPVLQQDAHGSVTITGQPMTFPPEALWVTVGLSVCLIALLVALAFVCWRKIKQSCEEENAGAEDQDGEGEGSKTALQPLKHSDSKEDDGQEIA
Procedure: (§1) Cells were harvested from flasks when approximately 80% confluent using Gibco® Cell Dissociation Buffer. Cells were washed once in PBS/1% FBS (FACS buffer) then resuspended at 2.5×10⁶ cells/mL in FACS buffer. 100 μL of cells/well were added to a round bottom 96-well plate. 10 μL of a 10× concentration of mAb/ADC (final concentrations are indicated the figures). Wells were washed twice with FACS buffer and resuspended in 50 μL of secondary Ab (AlexaFluor 488) diluted in FACS buffer. The plate was incubated at 4° C. for one hour and washed twice with FACS buffer. Cells were resuspended in 100 μL of PBS/1% formaldehyde and analyzed on a Becton Dickinson LSRII flow cytometer. Data was analyzed using WinList flow cytometry analysis software.
The parental chAb18 from which the variants were derived was also tested as a comparator.

Human full length B7-H3 [2] = target: T1, Human full length B7-H3; test: FACS, cell surface human B7-H3 (as Example 6)
Procedure: as §1
Nine anti-B7-H3 chimeric antibodies were conjugated to the Bcl-xL inhibiting (Bcl-xLi) synthon CZ (Example 2.1) using conjugation Method A described below. The resulting ADCs (anti-B7-H3 antibodies conjugated to synthon CZ) were tested for binding to cell surface human B7-H3 by FACS (as described in Example 6) and for cell cytotoxicity in cell lines expressing B7-H3. […] Table 6 provides cell surface binding and cytotoxicity activity of anti-B7-H3 chimera ADCs against breast cancer cell HCC38 expressing human B7-H3.

Human full length B7-H3 [3] = target: T1, Human full length B7-H3; test: FACS, NCI-H1650 cells
Procedure: To generate purified chimeric antibodies, expression vectors were transiently transfected into HEK293 6E suspension cell cultures in a ratio of 60% to 40% light to heavy chain construct. 1 mg/ml of polyethylenimine (PEI) or 2.6 μL/mL of Expifectamine was used to transfect the cells. Cell supernatants were harvested after five days in shaking flasks, spun down to pellet cells, and filtered through 0.22 μm filters to separate IgG from culture contaminants. Antibody-containing supernatants were purified on Akta Pure using protein A mAb SelectSure. Columns were equilibrated in PBS pH 7.4, supernatants were then passed through the column and a wash was performed with PBS pH 7.4. IgG were eluted with 0.1 M acetic acid pH 3.5 and collected in several aliquots. Fractions containing IgG were pooled and dialyzed in PBS overnight at 4° C.
as §1

[4] = target: T2, Human B7-H3-ECD (His tag) (human, UniProt Q5ZPR3 29-461); test: SPR Biacore, naked mAb
T2 construct: SPR analyte; also called huB7-H3; soluble ECD of human B7-H3
T2 sequence: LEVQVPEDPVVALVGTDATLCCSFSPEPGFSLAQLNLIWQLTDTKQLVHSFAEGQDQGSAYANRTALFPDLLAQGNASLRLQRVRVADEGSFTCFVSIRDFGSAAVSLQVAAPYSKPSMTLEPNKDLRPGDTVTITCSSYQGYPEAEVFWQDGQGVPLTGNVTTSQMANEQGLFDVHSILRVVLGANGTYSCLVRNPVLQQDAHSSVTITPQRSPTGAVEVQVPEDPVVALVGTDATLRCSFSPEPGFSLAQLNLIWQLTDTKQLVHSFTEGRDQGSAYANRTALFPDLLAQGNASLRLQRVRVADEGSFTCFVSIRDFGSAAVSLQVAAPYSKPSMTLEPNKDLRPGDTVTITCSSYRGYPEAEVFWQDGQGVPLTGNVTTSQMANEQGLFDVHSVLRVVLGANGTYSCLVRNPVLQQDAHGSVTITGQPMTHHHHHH
Excerpt: Biacore T200 SPR instruments were used to measure the binding kinetics of human B7-H3 (analyte) binding to various mAbs (ligands). The assay format was Fc-based capture via immobilized anti-mouse (Fc) (Pierce 31170) or immobilized anti-human (Fc) (Pierce 31125). A standard amine coupling protocol was employed to immobilize the capture reagents via primary amines to the carboxy-methyl (CM) dextran surface of CM5 sensorchips (Biacore); capture antibodies were coupled to a level of approximately 5000RU. For binding kinetic measurements the assay buffer was HBS-EP+ (Biacore): 10 mM Hepes, pH7.4, 150 mM NaCl, 3 mM EDTA, 0.05% polysorbate 20. During the assay, all measurements were referenced against the capture surface alone. Each assay cycle consisted of the following steps: 1) Capture of ligand to approximately 50RU; 2) Analyte injection over both reference and test surface, 240 μL at 80 μL/min, after which the dissociation was monitored for 900 seconds at 80 μL/min; 3) Regeneration of capture surface with low pH glycine. […] Data were processed and fit to a 1:1 binding model using Biacore T200 Evaluation Software to determine the binding kinetic rate constants, kₐ (on-rate) and kd (off-rate), and the equilibrium dissociation constant (affinity, KD).
These variants were further characterized for binding by SPR and as ADCs conjugated to the Bcl-xL inhibitor synthon (linker warhead) CZ. […] An ADC comprising chAb3 conjugated to synthon CZ was used as a control.

[5] = target: T3, hB7-H3 (ELISA antigen of Tables 17 and 20) (human, UniProt Q5ZPR3 29-466, limits assumed); test: ELISA
T3 sequence: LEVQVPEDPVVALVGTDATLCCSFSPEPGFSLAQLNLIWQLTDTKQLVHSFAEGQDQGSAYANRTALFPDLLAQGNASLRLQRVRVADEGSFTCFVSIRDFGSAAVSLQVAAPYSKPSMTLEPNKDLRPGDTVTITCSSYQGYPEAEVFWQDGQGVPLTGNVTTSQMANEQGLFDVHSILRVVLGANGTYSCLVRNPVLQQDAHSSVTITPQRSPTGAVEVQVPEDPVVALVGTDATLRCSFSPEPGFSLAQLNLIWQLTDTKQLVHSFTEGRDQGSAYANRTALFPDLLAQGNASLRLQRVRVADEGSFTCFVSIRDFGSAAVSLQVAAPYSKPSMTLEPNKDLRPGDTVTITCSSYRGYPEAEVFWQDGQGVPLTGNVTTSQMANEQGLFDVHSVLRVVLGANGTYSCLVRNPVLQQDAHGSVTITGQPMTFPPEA

Human full length B7-H3 [6] = target: T1, Human full length B7-H3; test: cell-based or functional assay
[7] = target: T4, Cynomolgous B7-H3 on cells (cynomolgus); test: FACS, 3T12 transfectants
T4 construct: whole, on cells; also called cyB7-H3; cyno B7-H3

| Binder | EC50 (Human full length B7-H3 [2]) | Kd [4] | further results |
| --- | --- | --- | --- |
| B1 | 1.78 nM |  | EC50 (Human full length B7-H3 [1]): 1.14 nM |
| B2 | 1.12 nM |  |  |
| B3 | 0.56 nM |  |  |
| B4 | 0.62 nM |  |  |
| B5 |  | 19 nM | EC50 (Human full length B7-H3 [3]): 0.61 nM |
| B6 | 0.54 nM |  |  |
| B7 | 0.5 nM |  |  |
| B8 |  |  | EC50 [5]: 0.13 nM; EC50 nM H1650 (tumor cell cytotoxicity) (Human full length B7-H3 [6]): 0.4 nM; EC50 [7]: 4.86 nM |
| B9 |  | 0.23 nM |  |
| B10 |  | 0.57 nM |  |
| B11 |  | 0.23 nM |  |
| B12 |  | 0.52 nM |  |
| B13 |  | 0.2 nM |  |

Reference: patent US20170355769A1 (AbbVie / Abbott, published 2017)
